Experimental data reported in patent US8389575B2, “Control of enzymatic peracid generation” (E.I. du Pont de Nemours and Company, priority 2008, dated 2013).

Tests used:
[1] = Dependence of specific activity on pH for hydrolysis of triacetin by CE-7 esterases/perhydrolases (cell extracts of E. coli KLP18 transformants); type: biochemical; conditions: 200 mM triacetin, 25° C.
Experimental: A cell extract of an E. coli transformant expressing perhydrolase from Thermotoga neapolitana (KLP18/pSW196), Thermotoga maritima MSB8 (KLP18/pSW207), Bacillus pumilus PS213 (KLP1S/pSW195), Bacillus subtilis BE1010 (KLP18/pSW189), Bacillus subtilis ATCC® 31954™ (KLP18/pSW194), or Bacillus licheniformis ATCC® 14580™ (KLP18/pSW191) was prepared by passing a suspension of cell paste (20 wt % wet cell weight) in 0.05 M potassium phosphate buffer (pH 7.0) containing dithiothreitol (1 mM) twice through a French press having a working pressure of 16,000 psi (˜110 MPa). The crude extract was then centrifuged at 20,000×g to remove cellular debris, producing a clarified cell extract that was assayed for total soluble protein (Bicinchoninic Acid Kit for Protein Determination, Sigma Aldrich catalog #BCA1-KT). A portion of the clarified Thermotoga maritima MSB8 or Thermotoga neapolitana perhydrolase-containing extract was additionally heated for 20 min at 75° C., followed immediately by cooling in an ice/water bath to 5° C. The resulting mixture was centrifuged to remove precipitated protein, and the supernatant collected and assayed for total soluble protein as before.
Reactions (10 mL total volume) containing triacetin (200 mM) and cell extract supernatant (prepared as described above) were run at 25° C. and at a pH between 4.5 and 10.0, using the buffers and buffer concentrations listed in Table 5. The concentration of extract total protein (with or without heat-treatment to denature and precipitate E. coli-derived protein) was chosen to produce an ca. 50 mM decrease in triacetin concentration over 30 min (typically from 0.025 mg/mL to 0.40 mg/mL of total extract protein, dependent on the perhydrolase). A control reaction for each reaction condition was run to determine the concentration of triacetin hydrolyzed in the absence of added extract protein. Samples (100 μL) were removed at predetermined times and immediately added to 297 μL of dd H2O and 3 μL of 6N HCL. The resulting solution was mixed, then filtered using a 30,000 NMWL filter (Millipore) using a microcentrifuge for 2 min at 12,000 rpm. An aliquot of the filtrate (100 μL) was added to 150 μL of 0.417 mM N,N-diethyl meta-toluamide (external standard) in acetonitrile, and the resulting solution analyzed for triacetin by HPLC using a Supelco Discovery C8 column (25 cm×4.0 mm, 5 um; Supelco #59353-U40) and an isocratic mobile phase of 40% acetonitrile/60% distilled water at a flow rate of 1 mL/min. Triacetin was measured by UV detection at 225 nm.

[2] = Peracetic acid production by perhydrolases, control by initial reaction pH in sodium citrate buffer; type: biochemical; conditions: triacetin 100 mM, 0.050 mg/mL extract total protein, 25° C.
Experimental: A cell extract of a transformant expressing perhydrolase from Bacillus pumilus PS213 (KLP18/pSW195), Thermotoga maritima MSB8 (KLP18/pSW207), Thermotoga neapolitana (KLP18/pSW196), or Bacillus subtilis ATCC® 31954™ (KLP18/pSW194) was prepared by passing a suspension of cell paste (20 wt % wet cell weight) in 0.05 M potassium phosphate buffer (pH 7.0) containing dithiothreitol (1 mM) twice through a French press having a working pressure of 16,000 psi (˜110 MPa). The crude extract was then centrifuged at 20,000×g to remove cellular debris, producing a clarified cell extract that was assayed for total soluble protein (Bicinchoninic Acid Kit for Protein Determination, Sigma Aldrich catalog #BCA1-KT). The supernatant was frozen in dry ice and stored at −80° C.
Reactions (10 mL total volume) containing triacetin, hydrogen peroxide and centrifuged cell extract supernatant (prepared as described above) in 50 mM sodium citrate buffer (initial pH 7.2 or 6.5) were run at 25° C. A control reaction for each reaction condition was run to determine the concentration of peracetic acid produced by chemical perhydrolysis of triacetin by hydrogen peroxide in the absence of added extract protein (data not shown). Determination of the concentration of peracetic acid in the reaction mixtures was performed according to the method described by Karst et al., supra.

[3] = initial pH 6.5, sodium citrate 50 mM, H2O2 100 mM
[4] = initial pH 6.5, sodium citrate 50 mM, H2O2 250 mM
[5] = initial pH 7.2, sodium citrate 50 mM, H2O2 100 mM
[6] = initial pH 7.2, sodium citrate 50 mM, H2O2 250 mM

B1: B. pumilus PS213: acetyl xylan esterase with perhydrolase activity from Bacillus pumilus PS213 (SEQ ID NO: 10), cell extract of E. coli KLP18/pSW195 (protein, listed as Bacillus pumilis)
chain: MQLFDLSLEELKKYKPKKTARPDFSDFWKKSLEELRQVEAEPTLESYDYPVKGVKVYRLTYQSFGHSKIEGFYAVPDQTGPHPALVRFHGYNASYDGGIHDIVNWALHGYATFGMLVRGQGGSEDTSVTPGGHALGWMTKGILSKDTYYYRGVYLDAVRALEVIQSFPEVDEHRIGVIGGSQGGALAIAAAALSDIPKVVVADYPYLSNFERAVDVALEQPYLEINSYFRRNSDPKVEEKAFETLSYFDLINLAGWVKQPTLMAIGLIDKITPPSTVFAAYNHLETDKDLKVYRYFGHEFIPAFQTEKLSFLQKHLLLST
With B1 the “specific activity (mmol triacetin/min/mg total extract protein)” value ([1]; pH 5.0, sodium acetate 0.15 M) was 1.8 mmol triacetin/min/mg total extract protein, the “specific activity (mmol triacetin/min/mg total extract protein)” value ([1]; pH 5.5, sodium acetate 0.15 M) was 3.5 mmol triacetin/min/mg total extract protein and the “specific activity (mmol triacetin/min/mg total extract protein)” value ([1]; pH 6.0, sodium citrate 0.15 M) was 4.2 mmol triacetin/min/mg total extract protein. The “specific activity (mmol triacetin/min/mg total extract protein)” value ([1]; pH 6.5, sodium citrate 0.15 M) was 11.6 mmol triacetin/min/mg total extract protein, the “specific activity (mmol triacetin/min/mg total extract protein)” value ([1]; pH 7.0, potassium phosphate 0.15 M) was 30.5 mmol triacetin/min/mg total extract protein and the “specific activity (mmol triacetin/min/mg total extract protein)” value ([1]; pH 7.5, potassium phosphate 0.15 M) was 33.7 mmol triacetin/min/mg total extract protein. For the same molecule, the “specific activity (mmol triacetin/min/mg total extract protein)” value ([1]; pH 8.0, potassium phosphate 0.20 M) was 53.9 mmol triacetin/min/mg total extract protein, the “specific activity (mmol triacetin/min/mg total extract protein)” value ([1]; pH 8.5, Tris(hydroxymethyl)aminomethane 0.20 M) was 72.4 mmol triacetin/min/mg total extract protein and the “specific activity (mmol triacetin/min/mg total extract protein)” value ([1]; pH 9.0, Tris(hydroxymethyl)aminomethane 0.20 M) was 80.4 mmol triacetin/min/mg total extract protein. For the same molecule, the “specific activity (mmol triacetin/min/mg total extract protein)” value ([1]; pH 9.5, glycine 0.20 M) was 71.1 mmol triacetin/min/mg total extract protein, the “PAA, 1 min (ppm)” value [2, 3] was 170 ppm and the “PAA, 5 min (ppm)” value [2, 3] was 310 ppm. For the same molecule, the “PAA, 30 min (ppm)” value [2, 3] was 830 ppm, the “PAA, 1 min (ppm)” value [2, 4] was 281 ppm and the “PAA, 5 min (ppm)” value [2, 4] was 652 ppm. The “PAA, 30 min (ppm)” value [2, 4] was 1984 ppm, the “PAA, 1 min (ppm)” value [2, 5] was 160 ppm and the “PAA, 5 min (ppm)” value [2, 5] was 322 ppm. For the same molecule, the “PAA, 30 min (ppm)” value [2, 5] was 1010 ppm, the “PAA, 1 min (ppm)” value [2, 6] was 465 ppm and the “PAA, 5 min (ppm)” value [2, 6] was 1170 ppm. The “PAA, 30 min (ppm)” value [2, 6] was 2525 ppm.
